The data set is described as follows: label from the status in PepcDB records.

“MAVNPATGKSDFVMMSEQQELGMGARYNQEILKQFPRYNDEKLQAYVQRVGERVARSSHRSNLQYHFTVIDSPDINAFALPGGYIYIHRGLIAYLGSEAELAAVLGHEVGHVTARHSVRQQSQASAWNILGQAVAIGTGVGAAGDLANVLGTAFVRGYGRDMELEADGLGAQYLARAGYDPTAMIQVVRVLKNQEDFAREEAARNGQAVQAGGYHGLFDTHPDNDRRLQEVVGPARQLANGQQEVGREVFLRHLEGMPFGDSASAGVRRGQNFYHAELDFTLSYPAGWKILNQPSALLGYPADEQSFIGMKLVPHDSRLTPAEFLRKNAGQRLAQEESLKQAGLNGYTAVVPGNPARRVAVIYQGDRAYLFVGVVKVGSLETQDDRFLSVIRSFRPLRDKERALAQPRRLHLVQVKAGQTLEQLAAGGEGSLSDSVARLRLLNDLYPSGEPRPGDWLKVVRLEHHHHHH”: the protein production result is “failed”.

In the case of “MAVNQDTLYVKGDRNVEVTKREVTLGDLVSMECSNRVILPHLKTMKVLKIPENGEKRYVISILKIIACIHEKYPGLEVQNLGETDLIVTYEMQKTPSK”, the protein production entry is “not failed”.

In the case of “MAVTDVFARRATLRRSLRLLADFRYEQRDPARFYRTLAADTAAMIGDLWLATHSEPPVGRTLLDVGGGPGYFATAFSDAGVGYIGVEPDPDEMHAAGPAFTGRPGMFVRASGMALPLADDSVDICLSSNVAEHVPRPWQLGTEMLRVTKPGGLVVLSYTVWLGPFGGHEMGLSHYLGGARAAARYVRKHGHPAKNNYGSSLFAVSAAEGLRWAAGTGAALAVFPRYHPRWAWWLTSVPVLREFLVSNLVLVLTP”, the protein production entry is “failed”.

In the case of “MAVYMLNMGIVFVWSWFAKMYGREDHRLPTGYRPNAILTVVPLASLIIVAGLRYKVGTDYHTYMLLYELAGKYNSIWEIFGFGTGKSSTDPGFTALLWILNQISADPALMFAVVAAITYIYIVKTLYVYGRPFELSMFLFIGMFHYYASFNGIRQYMAAAILFWAVRYLIDGKLVRYMIVVLICSLFHSSALIMIPVYFIVRRKAWSPVLWCLMLVFLAGTFLYQKFLSVFLVVLENSQYGHYEEWLMKNTNGMNVIKIIVLLLPLALAFCFREQLRKRWPEVDYIVNLCLIGFLFGILATKDVIFARFNIYFGLYQLILVPYFVRIFEPKSNALLYVLILICYFLYSFMLMPFDSSVLPYRTIFER”, the protein production entry is reported as “failed”.

Consider “MAWHAAEDRSLGFKETYLMQRFGAGVVIDDFELVEKLPSGGMASLWRATNPRYDFPLVLKIPFLDPGADVSVILGFEAEELILKRLSGPHVPRFAASGSLAQVPYIAMEFVVGKGLADIVGNAPLPMDEVARIGIEIATALAALHRQKVVHLDLKPENVVLANRGAVLLDFGLARHEELPDFLGAESSVPMGTAAYISPEQVLGERSDPASDLFALGCILFQLATGEEPFGRPATLAGMKRRLYHAPRSPRDINDAIPRWLEAIILKCMEVDRSQRYIEAAHILSDLRSPDQVVVAKRKPRNEGGWAAITSLFRKTDDRSLVGRASSTRTQAGPSIVLAAVDLANGTDALAGEVLNETARVLASREDSWLACVTVLRTEIIGDTPATDETGRSVYLKRLVALKDWAYPLHLPEDRISYHVLEAVSPADAILTYAEHNDVGHIVVGARASSAIRRHLGSVSTKVVAQALCSVSVVRLKAVEEQQRRPL”, for which the protein production entry was “failed”.

Regarding “MAYGKAHLEAQLKRALAEEIQALEDPRLFLLTVEAVRLSKDGSVLSVYVEAFREEEGALRALSRAERRLVAALARRVRMRRLPRLEFLPWRASPA”, the protein production entry is listed as “not failed”.

As to “MAYIYGFRTLDRRVFYLALSRLIRASGRVSSFIFLPLIFIEIYSISFLITGLILGSSAIAMAFVQYYSGRWTDRIGRRFFLIVIPIPAAVFYFLMFTTVYLHMSVILLIIFWYGTIITNSLQYPAIEASVADVTSTSERLSGYTLIRIMANLGAAVGPLAGGFLAGINFSYIFLLASIFTVIELFILYYNVRETFLPARAIAEKIKLKIFKTDRFFFLFTLVGVFLGFTLRQNGPTLTVYAFDLKNLPLMDIGYLYSLNGIVVIALQMPILRLMSSRSNPVFWRGIGTIYYSIGFVILGIAPTFLYILLAMFIFTVGEDFMSPTTQTIITTLAPAEKKGSYIGSYNLLTSFGRFFGTIFGLYFLFIYQKTTFTFWIIIATSTGVIGLLYIFMSESFIKRTSKIATLPGKA”, the protein production result is listed as “failed”.

For “MAYTIGVDFGTLSGRAVLVHVQTGEELAAAVKEYRHAVIDTVLPKTGQKLPRDWALQHPADYLEVLETTIPSLLEQTGVDPKDIIGIGIDFTACTILPIDSSGQPLCMLPEYEEEPHSYVKLWKHHAAQKHADRLNQIAEEEGEAFLQRYGGKISSEWMIPKVMQIAEEAPHIYEAADRIIEAADWIVYQLCGSLKRSNCTAGYKAMWSEKAGYPSDDFFEKLNPSMKTITKDKLSGSIHSVGEKAGSLTEKMAKLTGLLPGTAVAVANVDAHVSVPAVGITEPGKMLMIMGTSTCHVLLGEEVHIVPGMCGVVDNGILPGYAGYEAGQSCVGDHFDWFVKTCVPPAYQEEAKEKNIGVHELLSEKANHQAPGESGLLALDWWNGNRSTLVDADLTGMLLGMTLLTKPEEIYRALVEATAYGTRMIIETFKESGVPIEELFAAGGIAEKNPFVMQIYADVTNMDIKISGSPQAPALGSAIFGALAAGKEKGGYDDIKKAAANMGKLKDITYTPNAENAAVYEKLYAEYKELVHYFGKENHVMKRLKTIKNLQFSSAAKK”, the protein production entry was “not failed”.

“MAYTTTVKLDGDTKTYTLSPTVKKYTLMDLGFVKGRSGAFSFERSLDPTSPYQAAFKLKMTVNADLTGFKMTTVTGNGVQRANIFKNDAHPEAVEQLRYILANFIERDILTTD”: the protein production entry was “not failed”.

Consider “MCDAHLRGPSGIITSPNFPIQYDNNAHCVWIITALNPSKAGGDPGNIQCNKEGLSVETQSLRLRNRSCLLGNSKDNGCCVPNPVHGTGLQVIKLAFEEFDLERGYDTLTVGDGGQDGDQKTVLYILTGTSVPDLIVSTNHQMWLLFQTDGSGSSLGFKASYEEIEQGSCGDPGIPAYGRREGSRFHHGDTLKFECQPAFELVGQKAITCQKNNQWSAKKPGCVCK”, for which the protein production result is reported as “failed”.

Take “MCDRHQKLIRATDKPNFFGIDHYGFPEAGEHPADPPGYYPEYFSSERFQRLGYHVEELRGGFYWVTSGGYDAAFVVTSDGVVAIDAPPTIGENMLAAIEDVTDKPVTHLIYSHWHTDHIGAASVFGPNVEIVAHDITKELLERFPDPNRPVPTVTFDKDHLLVVGGVTLELSYKGENHCPGNIFIYAPAQKVLTVIDIVSPGSATFMHCDASQNITGWYEAQKQLMEYEFDFLVAGHHMKYGTPETVAASIEYFQDVLDGAQAAVDRFSRSDALVSILEGAGWDQVFSGTENWINSMANFATKYVLEKKSSNGQLWSERLAGVTTQTKYHAYTVLESIRLERPRPNYRLRGENPPPFLT”: the protein production result is “failed”.

Regarding “MCDRTSKNENRILTISALLASGFAAGGMVLGLLVGSIVIVFDGVYSLVSLLLTLLSLAASSYISKPSKSVFPFGKAVLEPIVIAIKAAVILVVVCFSLYSAISALMTGGREVDTSIATIFGLVNVIGCGYAWWFMAKKSRRFSSGLIDAEKKQWQMDTLLSVAVTVGFIAAWLVSLTPFAHYAVYADPMMMLLMGFYFLKVPFDMLCGALRELLMMTPSKELCQVVGNDVLEIEKVSDHQLKLAGITKVGQELRVNIDLHVDDDMIELDTLEQTRKQLTTRLSKHRFKLQLNLNVANC”, the protein production result was “failed”.

As for “MCFPYNKTVAMLAVLMLSGCEDQAALRNADNPPSPPAARMTEFGPGTEDATITQHPYMDNRHAINEGKRLYSWFNCTGCHAHGGGGMGPPLMDKQWIYGSEPAQIFASIMEGRPNGMPAFHGKIPEQEVWKIVAYVRSLGGLSKDLPAGASSRPLQEQAESDKREVKTP”, the protein production entry is on record as “failed”.

For the sequence “MCFSFIMPPAMADILDIWAVDSQIASDGSIPVDFLLPTGIYIQLEVPREATISYIKQMLWKQVHNYPMFNLLMDIDSYMFACVNQTAVYEELEDETRRLCDVRPFLPVLKLVTRSCDPGEKLDSKIGVLIGKGLHEFDSLKDPEVNEFRRKMRKFSEEKILSLVGLSWMDWLKQTYPPEHEPSIPENLEDKLYGGKLIVAVHFENCQDVFSFQVSPNMNPIKVNELAIQKRLTIHGKEDEVSPYDYVLQVSGRVEYVFGDHPLIQFQYIRNCVMNRALPHFILVECCKIKKMYEQEMIAIEAAINRNSSNLPLPLPPKKTRIISHVWENNNPFQIVLVKGNKLNTEETVKVHVRAGLFHGTELLCKTIVSSEVSGKNDHIWNEPLEFDINICDLPRMARLCFAVYAVLDKVKTKKSTKTINPSKYQTIRKAGKVHYPVAWVNTMVFDFKGQLRTGDIILHSWSSFPDELEEMLNPMGTVQTNPYTENATALHVKFPENKKQPYYYPPFDKIIEKAAEIASSDSANVSSRGGKKFLPVLKEILDRDPLSQLCENEMDLIWTLRQDCREIFPQSLPKLLLSIKWNKLEDVAQLQALLQIWPKLPPREALELLDFNYPDQYVREYAVGCLRQMSDEELSQYLLQLVQVLKYEPFLDCALSRFLLERALGNRRIGQFLFWHLRSEVHIPAVSVQFGVILEAYCRGSVGHMKVLSKQVEALNKLKTLNSLIKLNAVKLNRAKGKEAMHTCLKQSAYREALSDLQSPLNPCVILSELYVEKCKYMDSKMKPLWLVYNNKVFGEDSVGVIFKNGDDLRQDMLTLQMLRLMDLLWKEAGLDLRMLPYGCLATGDRSGLIEVVSTSETIADIQLNSSNVAAAAAFNKDALLNWLKEYNSGDDLDRAIEEFTLSCAGYCVASYVLGIGDRHSDNIMVKKTGQLFHIDFGHILGNFKSKFGIKRERVPFILTYDFIHVIQQGKTGNTEKFGRFRQCCEDAYLILRRHGNLFITLFALMLTAGLPELTSVKDIQYLKDSLALGKSEEEALKQFKQKFDEALRESWTTKVNWMAHTVRKDYRS”, the protein production result is reported as “failed”.

With “MCLPIHVKYDWFCRLCKTGRTLRPTSLQRGRAMASLTLRHLAGNTWLIPAPAAIGVYVRNGRAVLIDSGNDEEAGRQILKLLNGQGWTLDLIVNTHSNADHIGGNAFLQKKTGCRVAATVPEAAFIANPILEPSFLYGGYPVKALRNKFLMAKPSTVTDIIEAIGPILDTGLEAVPLAGHFFGMIGIRTPDGVLFAADSLFPETILAKYPIFYLYDIREHLASLQRLRELEAAIYVPSHGAPSPEILPLIEANEQRVRQTVSFVESCCTDAPASFETVLERVCGEYGIVLDPNQYVLVGNTIRSILAFLSEEGRLAMIFDGGRLLWGTAADQREA”, the protein production result is on record as “failed”.

For “MCNAKDIYTAGWALVVMAGLVSLAIQVYLGYFRLDDMVKHLSRCRVIAIRMPLLGKDPLSRFFMLLCIGALFAMPHLFLRNGGLNVKDYRKFPLGLKWLINLFQFAALVAVIAFLVLWWVSRHL”, the protein production result is recorded as “failed”.

Take “MCPAVVPDDPHALTAPSPWVVRWAAPLPAGARVLDVACGSGRHVRWLAARGLRVTGIDRDADALSGLSEAADTLIADIEDGLWPLPAEAVFDAVVVTNYLYRPLWPRLLACVAPGGRLIYETFAVGNETVGKPSNPAFLLAPGELLEAVRGQLRVIGYEDGFIAAPREAYVQRLCAVRESAGAQARRYAL”: the protein production result is reported as “failed”.

As to “MCPEFQRKAAGAPRMGAMLARCVLTAALALQAAAAARAVEIEIGVASRGVVDGLEFVQFSADERTMATTHWGNVVHLWDLKTLRVRSSVSVANRDFDFDLSPDGRALAVWNEEGKGEIELYDTDNGQPARALPAPRLPQGESRRGRSLVYRDDGTLEFVSHGWIGGHARKAYLLAVPAGQPRAAETPLPALVNSVAFRKSAVMDQGRLLLAGVDGADDELAIMDIASGRMLAREPGFRIASYAADARRAVFVEADGKQRILAFDFSSRSLSTLPRWTGSGKFQPYRFVAGTRFLVLAPDEPDASTRRAAPGIYDLQTRRLHRLPPDADPGSIDVWGATASYVLCNPDHTACQAEVADLAISRKLGTFAVQPSADFRTWISPSGSMVVVGGADDGTMMVWSVKEQRVIGPNLEHHHHHH”, the protein production entry is on record as “failed”.

Regarding “MCRNNREDIFNLVPINIISSKFHVKVIGGGKAATIKVKGLLEKGCYVHILSKEFSKEILDIENKNLKLEKGNYYKEFIKDAHLIIIAVNESSLVYKISKDCEKEYKLYLNAANYKEGMVAIPYSRCYENLGFSISSKLGSPRITRAIGEEVSNIIKENDIYSIKVAKIREKAKKEELKDNIIEIISSKEFKNAILEKREYEYLKNLLGEELANSLTLGLK”, the protein production entry is listed as “failed”.

Source of the values: a protein production outcome set (Wang et al. 2014).
